Data: US20250282881A1 (SHANGHAI EPIMAB BIOTHERAPEUTICS, published 2025)

Tests used:
[1] = molecular target: T1, recombinant human OX40/His fusion protein (Novoprotein, CB17) (human, UniProt P43489 29-216); experiment: BLI (Octet RED96), antibody on AHC sensor, OX40/His as analyte, test group 1 (the reference itself)
T1 construct: Bought protein
T1 sequence: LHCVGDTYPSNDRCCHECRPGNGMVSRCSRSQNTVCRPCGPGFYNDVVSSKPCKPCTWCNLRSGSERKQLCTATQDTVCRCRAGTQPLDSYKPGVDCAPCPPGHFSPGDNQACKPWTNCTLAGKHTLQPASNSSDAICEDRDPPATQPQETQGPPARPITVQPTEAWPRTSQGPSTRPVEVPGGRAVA
Protocol: (§1) All 17 antibodies in Table 4 were expressed by transient transfection of HEK293 cell, purified by Protein A chromatography, and assayed for and ranked by dissociation rate constant (koff). Briefly, antibodies binding affinities and kinetics were characterized by Octet® RED96 biolayer interferometry (Pall FortéBio LLC). Antibodies were captured by Anti-hIgG Fc Capture (AHC) Biosensors (Pall) at a concentration of 100 nM for 120 seconds. After that, sensors were dipped into running buffer (1× pH 7.2 PBS, 0.05% Tween 20, 0.1% BSA) for 60 seconds to check the baseline, then dipped into recombinant human OX40/His fusion protein (Novoprotein, CB17) at assigned concentration for 200 seconds to measure binding, followed by dipped into running buffer for 600 seconds for dissociation. The assay was conducted in four test groups (as listed in Table 5) all containing the EM1007-044c chimeric antibody as the basis for normalization. The association and dissociation curves were fitted to a 1:1 Langmuir binding model using ForteBio Data Analysis software (Pall) to obtain the off-rate constants as shown in Table 5 below. The off-rate of each antibody was compared to that of the EM1007-mAb044c chimeric antibody in the same test group obtained in parallel to produce the corresponding off-rate ratio, serving as a normalized index. […]

[2] = molecular target: T1, recombinant human OX40/His fusion …; experiment: BLI (Octet RED96), antibody on AHC sensor, OX40/His as analyte, test group 2
Protocol: (§2) All 17 antibodies in Table 4 were expressed by transient transfection of HEK293 cell, purified by Protein A chromatography, and assayed for and ranked by dissociation rate constant (koff). Briefly, antibodies binding affinities and kinetics were characterized by Octet® RED96 biolayer interferometry (Pall FortéBio LLC). Antibodies were captured by Anti-hIgG Fc Capture (AHC) Biosensors (Pall) at a concentration of 100 nM for 120 seconds. After that, sensors were dipped into running buffer (1× pH 7.2 PBS, 0.05% Tween 20, 0.1% BSA) for 60 seconds to check the baseline, then dipped into recombinant human OX40/His fusion protein (Novoprotein, CB17) at assigned concentration for 200 seconds to measure binding, followed by dipped into running buffer for 600 seconds for dissociation. The assay was conducted in four test groups (as listed in Table 5) all containing the EM1007-044c chimeric antibody as the basis for normalization. The association and dissociation curves were fitted to a 1:1 Langmuir binding model using ForteBio Data Analysis software (Pall) to obtain the off-rate constants as shown in Table 5 below. The off-rate of each antibody was compared to that of the EM1007-mAb044c chimeric antibody in the same test group obtained in parallel to produce the corresponding off-rate ratio, serving as a normalized index. […]

[3] = molecular target: T1, recombinant human OX40/His fusion …; experiment: BLI (Octet RED96), antibody on AHC sensor, OX40/His as analyte, test group 1
Protocol: as §2

[4] = molecular target: T2, human OX40 on cells (CHO-K1-hOX40, CHO-OX40, Jurkat-OX40 reporter cells) (human, UniProt P43489 29-277); experiment: cell-based or functional assay
T2 sequence: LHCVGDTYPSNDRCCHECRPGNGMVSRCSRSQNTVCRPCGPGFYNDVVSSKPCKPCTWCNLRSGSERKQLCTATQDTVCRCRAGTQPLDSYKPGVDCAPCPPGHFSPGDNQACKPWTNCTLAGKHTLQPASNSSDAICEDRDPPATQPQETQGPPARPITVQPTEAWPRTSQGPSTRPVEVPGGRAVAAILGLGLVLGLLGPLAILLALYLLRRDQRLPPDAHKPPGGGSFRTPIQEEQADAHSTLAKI

[5] = molecular target: T1, recombinant human OX40/His fusion …; experiment: BLI (Octet RED96), antibody on AHC sensor, OX40/His as analyte, test group 3 (the reference itself)
Protocol: as §1

[6] = molecular target: T1, recombinant human OX40/His fusion …; experiment: BLI (Octet RED96), antibody on AHC sensor, OX40/His as analyte, test group 3
Protocol: as §2

[7] = molecular target: T3, cyno OX40 on cells (CHO-K1-cOX40) (cyno); experiment: FACS on CHO-K1-cOX40 cells
T3 construct: whole, on cells; also called Cyno OX40 on the cell surface
Protocol: (§3) The purified chimeric antibody was designated EM1007-44c. Binding activity to human or Cyno OX40 on the cell surface was assessed by FACS. Briefly, 5×10⁵ cells were seeded into each well of a 96-well plate (Corning, #3799). Cells were centrifuged at 400 g for 5 minutes and supernatants were discarded. For each well, 100 μl of 3× serial dilution of antibody starting from 100 nM was then added and mixed with the cells. After 60 minutes of 4° C. incubation, plates were washed to remove excess antibody. […] After another round of centrifugation and washing, cells were resuspended in FACS buffer for reading on a CytoFLEX Flow Cytometer (Beckman Coulter). Median Fluorescence Intensity (MFI) readouts were plotted against antibody concentration and analyzed with GraphPad Prism 8.0. The ability of OX40 to activate downstream signaling was detected in a Jurkat-OX40-NF-κB luciferase assay. Briefly, high binding plates (Corning, #3361) were coated with 3× serial dilution of EM1007-44c starting from 100 nM at 4° C. overnight, washed, then seeded with 1×10⁵ cells per well of OX40-NF-κB reporter and incubate at 37° C. for 6 hours. At the end of incubation, ONE-Glo™ luminescence assay kit (Promega, Cat. #E6130) reagents were prepared and added according to the manufacturer's instructions. Plates were read for luminescence signals on Varioskan™ LUX microplate reader (ThermoFisher Scientific).

[8] = molecular target: T1, recombinant human OX40/His fusion …; experiment: BLI (Octet RED96), antibody on AHC sensor, OX40/His as analyte, test group 4
Protocol: as §2

[9] = molecular target: T2, human OX40 on cells (CHO-K1-hOX40, …); experiment: FACS on CHO-K1-hOX40 cells
Protocol: as §3

[10] = molecular target: T1, recombinant human OX40/His fusion …; experiment: BLI (Octet RED96), antibody on AHC sensor, OX40/His as analyte, test group 4 (the reference itself)
Protocol: as §1

[11] = molecular target: T1, recombinant human OX40/His fusion …; experiment: BLI (Octet RED96), antibody on AHC sensor, OX40/His as analyte, test group 2 (the reference itself)
Protocol: as §1

B1: EM1007-44c (antibody, human IgG1, V domains shown)
VH: QVQLQQSGPELVKPGASVTISCKASGHAFSSSWMNWVKQRPGKGLEWIGRIYPGDEITNYNGKFKDKATLTADKSSSTAYMQLSSLTFEDSAVYFCARDLLMPYWGQGTLVTVSA
VL: DIVMTQTAFSNPVTLGTSASISCRSSKSLLYSNGITYLYWYLQKPGQSPHLLIYQMSNLAPGVPDRFSSSGSGTDFTLRISRVEAEDVGIYYCAQNLELPFTFGSGTKLEIK
notes: also called EM1007-mAb044c; EM1007-044c
[1]
  Normalized Index (off-rate ratio to EM1007-mAb044c): 100%
[2]
  koff: 0.000318 s⁻¹
[3]
  koff: 0.000336 s⁻¹
[4]
  OX40-Jurkat-NF-κB-Reporter, EC50: 0.43 nM
  OX40-Jurkat-NF-κB-Reporter, Maximal fold change: 1.52 fold
[5]
  Normalized Index (off-rate ratio to EM1007-mAb044c): 100%
[6]
  koff: 0.000305 s⁻¹
[7]
  EC50: 2.11 nM
[8]
  koff: 0.000279 s⁻¹
[9]
  EC50: 2.6 nM
[10]
  Normalized Index (off-rate ratio to EM1007-mAb044c): 100%
[11]
  Normalized Index (off-rate ratio to EM1007-mAb044c): 100%
